Experiments:
[1] = target: biotinylated recombinant human TIM-3-Fc chimera (R&D Systems 2365-TM) (human, UniProt Q8TDQ0, biotin (EZ-Link Sulfo-NHS-LC-Biotinylation kit)); test: ELISA
rhTIM-3-IgG1-Fc = rhTIM-3-IgG1-Fc (human, UniProt Q8TDQ0); test: ELISA
[2] = target: rhTIM-3-Fc AF647 (R&D Systems 2365-TM) (Homo sapiens (Human)., UniProt Q8TDQ0, AF647); test: flow cytometry on cells
[3] = target: human TIM-3 on primary blood cells (Homo sapiens (Human)., UniProt Q8TDQ0); test: flow cytometry on cells

IC50 [1]: 7.46 ± 0.052 nM
IC50 (rhTIM-3-IgG1-Fc): 0.353 ± 0.383 nM
IC50 [2]: 4.44 ± 3.12 nM
EC50 [3]: 0.74 ± 0.57 nM
B1: M6903, fully human anti-TIM-3 monoclonal IgG2 antibody (antibody, V domains shown)
VH: not shown
VL: QSALTQPRSVSGSPGQSVTISCTGTSSDVGGYNYVSWYQQHPGKAPKLMIYDVSKRPSGVPDRFSGSKSGNTASLTISGLQAEDEADYYCSSYADSVVFGGGTKVTVL
